# From patent US20060134087A1, “ITI-D1 Kunitz domain mutants as hNE inhibitors” (Dyax Corp., published 2006)
# B1: EPI-HNE-3 (designed binder)
# chain: AACNLPIVRGPCIAFFPRWAFDAVKGKCVLFPYGGCQGNGNKFYSEKECREYCGVP
# B2: MA-ITI-D1E7 display phage (designed binder)
# chain: KEDSCQLGYSAGPCVAMFPRYFYNGTSMACETFQYGGCMGNGNNFVTEKDCLQTCRGA
# What was measured:
# [1] = molecular target: T1, Human Neutrophil Elastase (human, UniProt P08246); test: progressive inhibition of hNE substrate hydrolysis after addition of inhibitor
# Experimental: The kinetic on-rates for the inhibitors reacting with hNE (kₒₙ) were determined from measurements of progressive inhibition of substrate hydrolytic activity by hNE following addition of inhibitor. For these experiments, a known concentration of inhibitor was added to a solution of hNE (0.847 nM) and substrate (25 μM) in 2 ml of reaction buffer in a plastic fluorescence cuvette. The change in fluorescence was recorded continuously following addition of the inhibitor. […] The enzymatic rate at selected times following addition of the inhibitor was determined from the slope of the tangent to the fluorescence time course at that time.
# The kinetic constant kₒₙ for EPI-HNE-2 reacting with hNE was determined as follows. EPI-HNE-2 at 1.3 nM was added to buffer containing 0.867 nM hNE (I:E=1.5:1) at time 0.
# [2] = molecular target: T1, Human Neutrophil Elastase; test: enzyme inhibition assay
# Experimental: (§1) Inhibition constants for the proteins reacting with hNE (Kᵢ) were determined using RT measurements of hydrolysis of a fluorogenic substrate (N-methoxysuccinyl-Ala-Ala-Pro-Val-7-amino-4-methylcoumarin, Sigma M-9771) by hNE. […] The reactions were incubated at RT for 30 minutes. At the end of the incubation period, the fluorogenic substrate was added at a concentration of 25 μM and the time course for increase in fluorescence at 470 nm (excitation at 380 nm) due to enzymatic substrate cleavage was recorded using a spectrofluorimeter (Perkin-Elmer 650-15) and strip chart recorder. […] Kᵢ is related to Kₐₚₚₐᵣₑₙₜ by Kᵢ=Kₐₚₚₐᵣₑₙₜ×(1/(1+(S₀/Kₘ))). The correction is small compared to the possible errors in Kₐₚₚₐᵣₑₙₜ. Rates of enzymatic substrate cleavage were determined from the linear slopes of the recorded increases in fluorescence.
# (§2) We recorded data used to determine Kᵢ for EPI-HNE-2 and EPI-HNE-3 reacting with hNE. Data obtained as described above are recorded as percent residual activity plotted as a function of added inhibitor. […] From the data, Kᵢ values for EPI-HNE-2 and for EPI-HNE-3 reacting with hNE at RT were calculated to be 4.8 pM and 6.2 pM, respectively.
# [3] = molecular target: T1, Human Neutrophil Elastase; test: inhibition of hNE hydrolysis of a fluorogenic substrate, [hNE] = 8.47 × 10^-10 molar
# Experimental: as §1, §2
# Human Plasma Factor Xa = Human Plasma Factor Xa (human, UniProt P00742); test: enzyme inhibition assay; limit on the assumption of less than 10% inhibition at the highest concentration tested
# Human Urine Urokinase = Human Urine Urokinase (human, UniProt P00749); test: as above
# Human Serum Plasmin = Human Serum Plasmin (human, UniProt P00747); test: as above
# Human Serum Thrombin = Human Serum Thrombin (human, UniProt P00734); test: as above
# Human Serum Kallikrein = Human Serum Kallikrein (human, UniProt P03952); test: as above
# [4] = molecular target: T1, Human Neutrophil Elastase; test: calculated by the filing from koff = KD × kon
# Text: […] […] B. Specificity.
# [5] = molecular target: Human Pancreatic Chymotrypsin (human, UniProt P17538); test: enzyme inhibition assay; said to be probably not specific
# [6] = molecular target: T1, Human Neutrophil Elastase; test: hNE inhibition assay of EPI-HNE-3 stored in unbuffered water at 4° C. for five months
# [7] = molecular target: T1, Human Neutrophil Elastase; test: display phage eluted from hNE beads, normalized to MA-EpiNE7 in a concurrent elution
# [8] = molecular target: T1, Human Neutrophil Elastase; test: abbreviated fractionation of display phage on hNE beads
# Experimental: (§3) To test if ITI-D1E7-display phage bind hNE beads, pH elution profiles were measured. Aliquots of EpiNE-7, MA-ITI-D1, and MA-ITI-D1E7 display phage were incubated with hNE beads for three hours at room temperature (RT). The beads were washed and phage were eluted as described in U.S. Pat. No. 5,223,409, except that only three pH elutions were performed.
# [9] = molecular target: T1, Human Neutrophil Elastase; test: display phage on hNE beads, pH elution
# Experimental: as §3
Binder,kon [1] [M⁻¹ s⁻¹],Ki [2] [pM],Kd [3] [pM],Ki (Human Plasma Factor Xa) [µM],Ki (Human Urine Urokinase) [µM],Ki (Human Serum Plasmin) [µM],Ki (Human Serum Thrombin) [µM],Ki (Human Serum Kallikrein) [µM],koff [4] [s⁻¹],Ki [5] [µM],Ki [6] [pM],Normalized fraction of input (relative to recovered MA-EpiNE7) [7] [ratio],fraction of input eluted at pH 3.5 [8],fraction of input in Wash [8],fold less total fraction eluted than EpiNE-7 display phage [9] [fold]
B1,8e+06,6,6.2,> 100,> 100,> 100,> 100,> 100,5e-05,~30,~12,–,–,–,–
B2,–,–,–,–,–,–,–,–,–,–,–,0.027,8e-05 fraction of input,2e-05 fraction of input,~40
